Test results from PMC2174254 (The Journal of Cell Biology, 1999).

How the values were obtained:
Experiment in all cases: cross-linking
[1] = molecular target: T1, PDI deletion mutant Δ222–302 (S. cerevisiae, UniProt P17967 29-522, Δ222–302, N-glycosylated (endoglycosidase H sensitive))
T1 sequence (looked up): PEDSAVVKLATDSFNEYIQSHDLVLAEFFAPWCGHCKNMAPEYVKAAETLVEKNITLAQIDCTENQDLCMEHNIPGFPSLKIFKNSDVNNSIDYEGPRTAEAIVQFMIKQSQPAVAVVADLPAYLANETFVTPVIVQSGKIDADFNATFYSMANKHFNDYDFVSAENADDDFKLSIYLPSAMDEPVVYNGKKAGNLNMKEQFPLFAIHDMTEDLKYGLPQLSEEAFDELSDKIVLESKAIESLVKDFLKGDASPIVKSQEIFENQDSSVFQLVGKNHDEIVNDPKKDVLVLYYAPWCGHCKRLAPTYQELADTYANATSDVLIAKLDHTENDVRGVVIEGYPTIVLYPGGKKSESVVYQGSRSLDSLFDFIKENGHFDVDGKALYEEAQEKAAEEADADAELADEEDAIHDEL

[2] = molecular target: T2, PDI deletion mutant Δ252–277 (S. cerevisiae, UniProt P17967 29-522, Δ252–277, N-glycosylated (endoglycosidase H sensitive))
T2 sequence (looked up): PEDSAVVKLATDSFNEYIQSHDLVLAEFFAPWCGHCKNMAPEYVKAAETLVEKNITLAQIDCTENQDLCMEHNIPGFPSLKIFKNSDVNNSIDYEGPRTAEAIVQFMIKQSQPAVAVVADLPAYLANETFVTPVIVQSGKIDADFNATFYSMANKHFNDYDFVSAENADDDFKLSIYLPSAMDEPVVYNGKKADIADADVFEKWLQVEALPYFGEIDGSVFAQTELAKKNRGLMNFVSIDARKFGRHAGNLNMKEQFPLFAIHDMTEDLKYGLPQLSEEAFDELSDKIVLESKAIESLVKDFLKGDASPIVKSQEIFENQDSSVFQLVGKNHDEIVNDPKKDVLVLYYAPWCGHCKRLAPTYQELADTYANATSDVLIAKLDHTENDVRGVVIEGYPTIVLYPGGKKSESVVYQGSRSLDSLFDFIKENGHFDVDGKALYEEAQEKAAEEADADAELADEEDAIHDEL

[3] = molecular target: T1, PDI deletion mutant Δ222–302; remark: listed apart in the source
[4] = molecular target: T2, PDI deletion mutant Δ252–277; remark: listed apart in the source

BiP immunoprecipitated relative to wild-type PDI [1]: 2.7 fold
fold reduction of affinity compared with wild-type PDI [2]: ~2.8 fold
fold decrease of BiP coimmunoprecipitated with Δgpαf present against absent [3]: 4.7 fold
fold reduction of BiP coimmunoprecipitated with Δgpαf present against absent [4]: 1.3 fold
B1: BiP, heavy chain binding protein (natural protein)
chain: not shown
